For assay [1], the target named is T1, QP706, vimentin peptide fragment … (SEQ ID NO: 841), state with N-terminal arginine (RFLEQQNK).
T1 construct: residue range inferred from the printed segment
T1 peptide: RFLEQQNK
The assay can be described thus: single-molecule on-chip sequencing of QP706 with PS610, PS1220 and PS1223; RFL cluster in bin ratio v. pulse duration plot. How it is done:
(§1) Sequencing reactions using the recognizers PS610 (FYW), PS1220 (R), and PS1223 (LIV) were performed separately for the QP706 and QP1073 peptide fragments. Each recognizer was labeled with a unique dye and/or unique number of dyes. A scatter plot of bin ratio v. pulse duration is shown for the QP706 peptide fragment in FIG. 18A and for the QP1073 peptide fragment in FIG. 18B. In the plot of FIG. 18A, three clusters corresponding to FLE, LEQ, and RFL segments are visible. […] In the plot of FIG. 18B, two clusters corresponding to FLE and LEQ segments are visible, but there is no cluster corresponding to RFL.

Assay [2] has as its target T2, QP1073, citrullinated vimentin peptide fragment VCitFLEQQNK (SEQ ID NO: 842), state with N-terminal ….
T2 construct: residue range inferred
T2 peptide: [Cit]FLEQQNK
The assay is described as follows: single-molecule on-chip dynamic sequencing; bin ratio v. pulse duration clusters. How it is done:
as §1

Assay [3] concerns the target T3, QP1033, ICitLAFAYPDDDK (SEQ ID NO: 850) (also: C-terminal azidolysine (general statement for all synthetic peptides)).
T3 peptide: I[Cit]LAFAYPDDDK-NH2
The assay can be described thus: single-molecule on-chip sequencing; recognition of the N-terminal amino acid. How it is done: (§2) In this example, sequencing reactions were conducted for 4 pairs of unmodified and citrullinated peptides: QP1028 & QP1029, QP1030 & QP1031, QP1032 & QP1033, and QP707 & QP789. […] For the QP1028 & QP1029 and QP1030 & QP1031 pairs, sequencing reactions were conducted using the PS610 (FYW) recognizer. For the QP1032 & QP1033 and QP707 & QP789 pairs, sequencing reactions were conducted using the PS1223 (LIV) recognizer.

Assay [4] concerns the target T4, QP707, LRLAFAYPDDDK (SEQ ID NO: 817) (not fully specified (C-terminus); also: surface-immobilized through C-terminal linker).
T4 construct: Intact peptide, N-terminal leucine; surface-immobilized through a C-terminal linker
T4 peptide: LRLAFAYPDDDK
Described as above. As for the experimental part: as §2

For assay [5], the target named is T5, QP1032, IRLAFAYPDDDK (SEQ ID NO: 849).
T5 peptide: IRLAFAYPDDDK
Described as above. As for the experimental part:
as §2

The target of assay [6] is T6, QP789, LCitLAFAYPDDDK (SEQ ID NO: 839) (also: C-terminal azidolysine (general statement for all synthetic peptides)).
T6 construct: Intact peptide, N-terminal leucine
T6 peptide: L[Cit]LAFAYPDDDK-NH2
Described as above. How it is done: as §2

The target of assay [7] is T7, QP1073, citrullinated vimentin peptide fragment VCitFLEQQNK (SEQ ID NO: 842), state with N-terminal leucine ….
T7 construct: State after aminopeptidase cleavage
T7 peptide: LEQQNK
The assay is described as follows: single-molecule on-chip sequencing of QP1073 with PS610, PS1220 and PS1223; bin ratio v. pulse duration plot. How it is done:
as §1

The target in assay [8] is T8, QP706, vimentin peptide fragment … (SEQ ID NO: 841), state with N-terminal leucine (LEQQNK).
T8 construct: residue range inferred from the printed segment
T8 peptide: LEQQNK
The assay can be described thus: single-molecule on-chip sequencing of QP706 with PS610, PS1220 and PS1223; LEQ cluster in bin ratio v. pulse duration plot. How it is done: as §1

Assay [9] concerns the target T9, QP746, … (SEQ ID NO: 913), state with N-terminal arginine.
T9 construct: State after aminopeptidase cleavage of the N-terminal leucine; residue range inferred; also called R-X peptide, X = Y
T9 peptide: RYAFAYPDDDK
The assay is described as follows: single-molecule on-chip sequencing with PS621, PS610 and PS961; average of 10 sequencing reactions.

Assay [10] addresses T10, QP943, … (SEQ ID NO: 925), state with N-terminal arginine.
T10 construct: State after aminopeptidase cleavage of the N-terminal leucine; residue range inferred; also called R-X peptide, X = V
T10 peptide: RVAFAYPDDDK
The assay is described as above.

Assay [11] concerns the target T11, QP748, … (SEQ ID NO: 915), state with N-terminal arginine.
T11 construct: State after aminopeptidase cleavage of the N-terminal leucine; residue range inferred; also called R-X peptide, X = S
T11 peptide: RSAFAYPDDDK
The description is as above.

The target of assay [12] is T12, QP747, … (SEQ ID NO: 917), state with N-terminal arginine.
T12 construct: State after aminopeptidase cleavage of the N-terminal leucine; residue range inferred; also called R-X peptide, X = A
T12 peptide: RAAFAYPDDDK
The description is as above.

Assay [13] deals with T13, QP938, … (SEQ ID NO: 919), state with N-terminal arginine.
T13 construct: State after aminopeptidase cleavage of the N-terminal leucine; residue range inferred; also called R-X peptide, X = E
T13 peptide: REAFAYPDDDK
Described as above.

Assay [14] addresses T14, QP749, … (SEQ ID NO: 911), state with N-terminal arginine.
T14 construct: State after aminopeptidase cleavage of the N-terminal leucine; residue range inferred; also called R-X peptide, X = I
T14 peptide: RIAFAYPDDDK
The assay is described as above.

Assay [15] addresses T15, QP942, … (SEQ ID NO: 921), state with N-terminal arginine.
T15 construct: State after aminopeptidase cleavage of the N-terminal leucine; residue range inferred; also called R-X peptide, X = T
T15 peptide: RTAFAYPDDDK
Described as above.

In assay [16] the target is T16, QP707, … (SEQ ID NO: 817), state with N-terminal arginine (RLAFAYPDDDK).
T16 construct: residue range inferred from the recognized N-terminal residue; also called R-X peptide, X = L
T16 peptide: RLAFAYPDDDK
The description is as above.

The target in assay [17] is T17, QP941, … (SEQ ID NO: 923), state with N-terminal arginine.
T17 construct: State after aminopeptidase cleavage of the N-terminal leucine; residue range inferred; also called R-X peptide, X = Q
T17 peptide: RQAFAYPDDDK
The description is as above.

Assay [18] concerns the target T18, … (SEQ ID NO: 836), state with N-terminal SDMA (human, symmetric dimethylarginine (SDMA) at position 2 of SEQ ID NO: 836 (N-terminal residue of this state); conjugated C-terminally to a macromolecular linker).
T18 construct: residue range inferred
The assay is described as follows: single-molecule on-chip dynamic sequencing.

The target in assay [19] is T19, QP789, LCitLAFAYPDDDK (SEQ ID NO: 839), state with N-terminal citrulline (CitLAFAYPDDDK).
T19 construct: residue range inferred
T19 peptide: [Cit]LAFAYPDDDK
The assay can be described thus: single-molecule on-chip dynamic sequencing.

Assay [20] deals with T9, QP746, … (SEQ ID NO: 913), state with …. The assay can be described thus: cell-based or functional assay.
Assay [21] deals with T10, QP943, … (SEQ ID NO: 925), state with …. The assay can be described thus: cell-based or functional assay.
In assay [22] the target is T14, QP749, … (SEQ ID NO: 911), state with …. The assay is described as follows: cell-based or functional assay.
Assay [23] deals with T16, QP707, … (SEQ ID NO: 817), state with …. The assay is described as follows: cell-based or functional assay.

Square brackets hold non-standard residues; d marks the D form. Ends that are not written are not given here. Cit = NC(=O)NCCC[C@H](N)C(=O)O

B1: PS1220 (designed binder)
chain: MHSKFSHAGRICGAKFKVGEPIYRCKECSFDDTCVLCVNCFNPKDHLGHHVYTTICTEFNNGECDCGDKTAWNHTLFCKAEEGSAGSAAGSGEFMHSKFSHAGRICGAKFKVGEPIYRCKECSFDDTCVLCVNCFNPKDHLGHHVYTTICTEFNNGECDCGDKTAWNHTLFCKAEEG
notes: also called PS1220 (R)
Consider B1, for which the binding result in [1] is recorded as “binds”; in assay [2], “no binding”.

B2: PS1223 (designed binder)
chain: MPTAASATESAIEDTPAPARPEVDGRTKPKRQPRYHVVLWDDDDHTYQYVVVMLRSLFGHPPSRGYRMAKEMDTQGRVIVLTTTREHAELKRDQIHAFGRDRLLARSKGSMKASIEAEEGSAGSAAGSGEFGSAGSAAGSGEFGSAGSAAGSGEFMPTAASATESAIEDTPAPARPEVDGRTKPKRQPRYHVVLWDDDDHTYQYVVVMLRSLFGHPPSRGYRMAKEMDTQGRVIVLTTTREHAELKRDQIHAFGRDRLLARSKGSMKASIEAEE
notes: also called PS1223 (LIV)
For B2, the “Pulse Width” value in assay [3] came out at 0.84 s; in assay [4], 0.42 s; in assay [5] it was 0.58 s; in assay [6], 0.92 s. Moreover, the binding result in [7] and in assay [8] was “binds” in each case.

B3: PS621 (other)
chain: MHSKFSHAGRICGAKFKVGEPIYRCKECSFDDTCVLCVNCFNPKDHTGHHVYTTICTEFNNGICDCGDKEAWNHTLFCKAEEG
notes: Dye-labeled N-terminal arginine recognizer; also called PS621 (R)
As to B3, the “PW of R-X” value in [9] is 0.18 s; in assay [10] it was 0.41 s; in assay [11], < 0.12 s; in [12], < 0.12 s; in assay [13], < 0.06 s; in assay [14] it was 0.28 s. Besides, the results for the “PW of R-X” value in assay [15], in [16] and in assay [17] were < 0.06 s, 0.47 s and < 0.06 s, respectively. In addition, the binding result in assay [18] and in assay [19] was “no binding” in each case. Moreover, the “RS R-X” value stood at 9.6 min in assay [20], 25.5 min in assay [21], 15.4 min in assay [22] and 17.3 min in [23].
